Source: the supplement of paper PMC9112550, “Optimization of the antimicrobial peptide Bac7 by deep mutational scanning” (BMC Biology, 2022)

Each sequence was assayed on Escherichia coli TOP10 (assay: shrunken log2 fold change of peptide-encoding DNA abundance (4.5 h post-induction vs induction); higher = less antimicrobial activity (less host growth inhibition)). Details: time post-induction: 4.5 h; library: site-saturation at positions 5, 18, 19, 20.
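Further: peptides expressed intracellularly from a pBAD plasmid library in pooled LB shake-flask culture, induced with 0.3% L-arabinose, DNA abundance read by NGS, three biological replicates, DESeq2 with apeglm shrinkage.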

Sequence | shrunken log2 fold change
RRIRMRPPRLPRPRPRPCPPPRP | 0.106
RRIRSRPPRLPRPRPRPFQMPRP | 0.00561
RRIRMRPPRLPRPRPRPHVWPRP | 0.281
RRIRCRPPRLPRPRPRPEEFPRP | 0.0238
RRIRLRPPRLPRPRPRPICMPRP | -0.456
RRIRHRPPRLPRPRPRPCKCPRP | -0.174
RRIRQRPPRLPRPRPRPKPMPRP | 0.382
RRIRVRPPRLPRPRPRPTEHPRP | -0.0827
RRIRVRPPRLPRPRPRPKFTPRP | -0.0442
RRIRHRPPRLPRPRPRPKQFPRP | -0.108
RRIRFRPPRLPRPRPRPPTAPRP | 0.429
RRIRARPPRLPRPRPRPHHIPRP | -0.345
RRIRMRPPRLPRPRPRPVSSPRP | -0.0703
RRIRLRPPRLPRPRPRPDGHPRP | 0.0499
RRIRERPPRLPRPRPRPTNMPRP | -0.568
RRIRCRPPRLPRPRPRPTFGPRP | -0.213
RRIRVRPPRLPRPRPRPRWAPRP | 0.343
RRIRRRPPRLPRPRPRPEKCPRP | -0.00259
RRIRVRPPRLPRPRPRPEARPRP | 0.389
RRIRYRPPRLPRPRPRPELQPRP | 0.0344
RRIRDRPPRLPRPRPRPMGCPRP | -0.000921
RRIRVRPPRLPRPRPRPQAVPRP | -0.0188
RRIRVRPPRLPRPRPRPHRVPRP | 0.133
RRIRWRPPRLPRPRPRPMGEPRP | 0.0775
RRIRYRPPRLPRPRPRPSCYPRP | -0.0789

Sequence | shrunken log2 fold change
RRIRKRPPRLPRPRPRPKKQPRP | -0.119
RRIRWRPPRLPRPRPRPDGHPRP | 0.0237
RRIRARPPRLPRPRPRPVAPPRP | 0.612
RRIRWRPPRLPRPRPRPRNCPRP | -0.00862
RRIRHRPPRLPRPRPRPKMTPRP | -0.519
RRIRERPPRLPRPRPRPHCEPRP | -0.056
RRIRCRPPRLPRPRPRPRKFPRP | -0.00353
RRIRMRPPRLPRPRPRPRICPRP | 0.113
RRIRFRPPRLPRPRPRPMWPPRP | -0.0873
RRIRVRPPRLPRPRPRPVGFPRP | 0.158
RRIRERPPRLPRPRPRPNSEPRP | -0.391
RRIRRRPPRLPRPRPRPGMEPRP | 0.0306
RRIRNRPPRLPRPRPRPEKTPRP | -0.0226
RRIRTRPPRLPRPRPRPCWTPRP | -0.442
RRIRQRPPRLPRPRPRPIQSPRP | 0.0147
RRIRIRPPRLPRPRPRPWWQPRP | 0.0732
RRIRNRPPRLPRPRPRPRCMPRP | -0.5
RRIRCRPPRLPRPRPRPMMLPRP | -0.117
RRIRKRPPRLPRPRPRPEGKPRP | 0.201
RRIRIRPPRLPRPRPRPCLHPRP | -0.174
RRIRDRPPRLPRPRPRPAATPRP | 1.9
RRIRQRPPRLPRPRPRPTHQPRP | 0.403
RRIRIRPPRLPRPRPRPNMYPRP | -0.59
RRIRNRPPRLPRPRPRPVWDPRP | 0.325
RRIRHRPPRLPRPRPRPHMHPRP | -0.687

Sequence | shrunken log2 fold change
RRIRIRPPRLPRPRPRPHMSPRP | -0.109
RRIRWRPPRLPRPRPRPVCAPRP | 0.553
RRIRHRPPRLPRPRPRPSMAPRP | 0.231
RRIRARPPRLPRPRPRPIMEPRP | 0.0783
RRIRKRPPRLPRPRPRPEFGPRP | 0.0185
RRIRVRPPRLPRPRPRPRMGPRP | 1.86
RRIRNRPPRLPRPRPRPVMEPRP | -0.173
RRIRMRPPRLPRPRPRPRRQPRP | 1.13
RRIRTRPPRLPRPRPRPRIHPRP | 0.0773
RRIRFRPPRLPRPRPRPEPWPRP | 0.172
RRIRARPPRLPRPRPRPPQRPRP | 1.16
RRIRERPPRLPRPRPRPAVPPRP | 0.0842
RRIRSRPPRLPRPRPRPLICPRP | -0.221
RRIRYRPPRLPRPRPRPMPHPRP | -0.202
RRIRQRPPRLPRPRPRPCMPPRP | -0.27
RRIRIRPPRLPRPRPRPELQPRP | -0.0107
RRIRQRPPRLPRPRPRPMKNPRP | -0.124
RRIRDRPPRLPRPRPRPRRKPRP | 0.233
RRIRFRPPRLPRPRPRPCGFPRP | 0.0163
RRIRERPPRLPRPRPRPLENPRP | 0.0225
RRIRTRPPRLPRPRPRPITPPRP | -0.237
RRIRRRPPRLPRPRPRPMNWPRP | 0.291
RRIRERPPRLPRPRPRPHYSPRP | -0.16
RRIRDRPPRLPRPRPRPDFDPRP | 0.541
RRIRTRPPRLPRPRPRPLRIPRP | 0.00602
